Molecular target: AEBP2 ZF1-3 (Homo sapiens, UniProt Q6ZN18 258-357)
Test: fluorescence polarization; FPA with dsDNA: 25 mM Tris pH 7.4, 150 mM salt (salt identity and rest truncated in material), 50 nM FAM-DNA, 200 ul; G3A4 buffer and temperature not given in material
Settings: protein: recombinant, tags: His6
[1] = label: 5'-FAM on sense strand, blunt

AEBP2 ZF1-3, sequence (Q6ZN18 258-357): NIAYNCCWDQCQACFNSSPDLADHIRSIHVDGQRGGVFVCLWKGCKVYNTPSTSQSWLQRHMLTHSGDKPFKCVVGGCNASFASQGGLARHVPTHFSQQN

Row | Binder | binding result [1] | binding result (label: 5'-FAM, G4)
1 | AT-rich (dsDNA) DNA 1: ATAATTTATATTTATTATTTTATTATAATTTATATAATTTATAT DNA 2: ATATAAATTATATAAATTATAATAAAATAATAAATATAAATTAT | no binding | –
2 | GC-rich (dsDNA) DNA 1: GCGGCCCGCGCCCGCCGCCCCGCCGCGGCCCGCGCGGCCCGCGC DNA 2: GCGCGGGCCGCGCGGGCCGCGGCGGGGCGGCGGGCGCGGGCCGC | no binding | –
3 | T1 (dsDNA) DNA 1: GATCTTTAGTTAACTTCCTCTCTGTCTGCAGGCCACTCCAGATC DNA 2: GATCTGGAGTGGCCTGCAGACAGAGAGGAAGTTAACTAAAGATC | no binding | –
4 | AAAAAAGGGAAAAGGGAAAAGGGAAAAGGGAAAAAAAAAA (structured_DNA) [G3A4] | – | no binding

From article PMC6053351, “Structural and biochemical insights into human zinc finger protein AEBP2 reveals interactions with RBBP4”
